Patent US20140087995A1 (published 2014)
Numbered stars: 1 amine (or outer) side, 2 acyl side, 3 side chain; on linkers, the order of the positions; unused ones are H or OH. Bridge positions count the residues as written; N and C are the ends. Side chains are listed from the residue outwards. Ends that are not written are not given here. * marks the point of attachment. C20 diacid = O=C(O)CCCCCCCCCCCCCCCCCCC(=O)*; γGlu = O=C(O)[C@H](CCC(=O)[*:2])N[*:1]

T1: human amylin 3(a) receptor (human calcitonin receptor plus RAMP-3) (human, UniProt P30988 25-474; O60896 24-148, limits assumed)
T1 sequence (looked up) 1: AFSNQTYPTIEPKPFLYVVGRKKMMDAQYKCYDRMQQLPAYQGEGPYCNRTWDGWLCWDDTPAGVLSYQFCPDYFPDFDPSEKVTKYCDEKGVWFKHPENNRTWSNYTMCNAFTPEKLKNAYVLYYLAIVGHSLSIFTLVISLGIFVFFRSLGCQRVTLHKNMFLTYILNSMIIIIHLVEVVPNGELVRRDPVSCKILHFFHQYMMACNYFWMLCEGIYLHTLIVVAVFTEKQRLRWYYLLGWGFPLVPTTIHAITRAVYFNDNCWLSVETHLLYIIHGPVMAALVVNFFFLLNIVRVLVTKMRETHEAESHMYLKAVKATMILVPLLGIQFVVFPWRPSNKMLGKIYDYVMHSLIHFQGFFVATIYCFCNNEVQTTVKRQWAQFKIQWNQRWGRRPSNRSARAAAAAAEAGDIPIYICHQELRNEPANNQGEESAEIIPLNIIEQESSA
T1 sequence (looked up) 2: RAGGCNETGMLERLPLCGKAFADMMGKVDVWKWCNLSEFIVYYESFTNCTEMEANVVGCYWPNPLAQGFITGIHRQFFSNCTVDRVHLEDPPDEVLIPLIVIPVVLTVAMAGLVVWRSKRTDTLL

T2: human calcitonin receptor (human, UniProt P30988 25-474)
T2 sequence (looked up): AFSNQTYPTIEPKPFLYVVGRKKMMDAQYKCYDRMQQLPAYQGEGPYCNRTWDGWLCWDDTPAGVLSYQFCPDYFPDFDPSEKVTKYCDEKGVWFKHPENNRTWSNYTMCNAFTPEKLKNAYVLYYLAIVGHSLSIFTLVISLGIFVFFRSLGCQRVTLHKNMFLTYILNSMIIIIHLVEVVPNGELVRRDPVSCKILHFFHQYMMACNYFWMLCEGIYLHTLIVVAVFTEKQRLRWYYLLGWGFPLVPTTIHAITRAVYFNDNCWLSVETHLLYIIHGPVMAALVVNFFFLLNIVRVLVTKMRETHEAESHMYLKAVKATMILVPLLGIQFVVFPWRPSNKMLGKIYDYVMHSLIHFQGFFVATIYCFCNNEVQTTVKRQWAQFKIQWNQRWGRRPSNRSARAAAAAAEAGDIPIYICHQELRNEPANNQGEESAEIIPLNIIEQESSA


Columns and labels:
[1] = biological target: T1, human amylin 3(a) receptor (human …); assay: cell-based or functional assay
[2] = biological target: T2, human calcitonin receptor; assay: cell-based or functional assay
[3] = biological target: T1, human amylin 3(a) receptor (human …); assay: SPA competition binding, displacement of 125I-rat amylin from membranes of Amylin 3(a)/CRE-luc BHK cells (Assay V)
In short: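 Membranes from BHK Amylin 3(a)/CRE-luc cells (35 ng/μL final) were mixed with SPA beads and test compounds in 50 mM Hepes pH 7.4 with 1 mM CaCl2, 5 mM MgCl₂, 0.1% OA and 0.02% Tween20. Incubation ran 120 min at 25° C with shaking; IC₅₀ came from one-site competition fitting.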

Row | Binder | hAmylin-R funct. EC50 [1] [nM] | hCTR funct. EC50 [2] [nM] | IC50 [3] [nM] | Ratio hCT/hAmylin funct. [1]
1 | K([γGlu-γGlu-C20 diacid])CNTATCATQRLAEFLRHSSPNFGAIPSSTNVGHETY-NH2 (disulfide 2-7; N-terminus assumed; SMILES CC[C@H](C)[C@H](NC(=O)[C@H](C)NC(=O)CNC(=O)[C@H](Cc1ccccc1)NC(=O)[C@H](CC(N)=O)NC(=O)[C@@H]1CCCN1C(=O)[C@H](CO)NC(=O)[C@H](CO)NC(=O)[C@H](Cc1c[nH]cn1)NC(=O)[C@H](CCCNC(=N)N)NC(=O)[C@H](CC(C)C)NC(=O)[C@H](Cc1ccccc1)NC(=O)[C@H](CCC(=O)O)NC(=O)[C@H](C)NC(=O)[C@H](CC(C)C)NC(=O)[C@H](CCCNC(=N)N)NC(=O)[C@H](CCC(N)=O)NC(=O)[C@@H](NC(=O)[C@H](C)NC(=O)[C@@H]1CSSC[C@H](NC(=O)[C@@H](N)CCCCNC(=O)CC[C@H](NC(=O)CC[C@H](NC(=O)CCCCCCCCCCCCCCCCCCC(=O)O)C(=O)O)C(=O)O)C(=O)N[C@@H](CC(N)=O)C(=O)N[C@@H]([C@@H](C)O)C(=O)N[C@@H](C)C(=O)N[C@@H]([C@@H](C)O)C(=O)N1)[C@@H](C)O)C(=O)N1CCC[C@H]1C(=O)N[C@@H](CO)C(=O)N[C@@H](CO)C(=O)N[C@H](C(=O)N[C@@H](CC(N)=O)C(=O)N[C@H](C(=O)NCC(=O)N[C@@H](Cc1c[nH]cn1)C(=O)N[C@@H](CCC(=O)O)C(=O)N[C@H](C(=O)N[C@@H](Cc1ccc(O)cc1)C(N)=O)[C@@H](C)O)C(C)C)[C@@H](C)O) | 0.445 | 7.05 | 0.525 | 
2 | K([γGlu-γGlu-C20 diacid])CNTATCATQRLAEFLRHSSPNFGAIPSSTNVGHNTY-NH2 (disulfide 2-7; N-terminus assumed; SMILES CC[C@H](C)[C@H](NC(=O)[C@H](C)NC(=O)CNC(=O)[C@H](Cc1ccccc1)NC(=O)[C@H](CC(N)=O)NC(=O)[C@@H]1CCCN1C(=O)[C@H](CO)NC(=O)[C@H](CO)NC(=O)[C@H](Cc1c[nH]cn1)NC(=O)[C@H](CCCNC(=N)N)NC(=O)[C@H](CC(C)C)NC(=O)[C@H](Cc1ccccc1)NC(=O)[C@H](CCC(=O)O)NC(=O)[C@H](C)NC(=O)[C@H](CC(C)C)NC(=O)[C@H](CCCNC(=N)N)NC(=O)[C@H](CCC(N)=O)NC(=O)[C@@H](NC(=O)[C@H](C)NC(=O)[C@@H]1CSSC[C@H](NC(=O)[C@@H](N)CCCCNC(=O)CC[C@H](NC(=O)CC[C@H](NC(=O)CCCCCCCCCCCCCCCCCCC(=O)O)C(=O)O)C(=O)O)C(=O)N[C@@H](CC(N)=O)C(=O)N[C@@H]([C@@H](C)O)C(=O)N[C@@H](C)C(=O)N[C@@H]([C@@H](C)O)C(=O)N1)[C@@H](C)O)C(=O)N1CCC[C@H]1C(=O)N[C@@H](CO)C(=O)N[C@@H](CO)C(=O)N[C@H](C(=O)N[C@@H](CC(N)=O)C(=O)N[C@H](C(=O)NCC(=O)N[C@@H](Cc1c[nH]cn1)C(=O)N[C@@H](CC(N)=O)C(=O)N[C@H](C(=O)N[C@@H](Cc1ccc(O)cc1)C(N)=O)[C@@H](C)O)C(C)C)[C@@H](C)O, also called compound 87) | 0.285 | 1.09 | 0.633 | 3.8
3 | K([γGlu-γGlu-C20 diacid])CNTATCATQRLAEFLRHSSPNFGAIPSSTNVGPRTY-NH2 (disulfide 2-7; N-terminus assumed; SMILES CC[C@H](C)[C@H](NC(=O)[C@H](C)NC(=O)CNC(=O)[C@H](Cc1ccccc1)NC(=O)[C@H](CC(N)=O)NC(=O)[C@@H]1CCCN1C(=O)[C@H](CO)NC(=O)[C@H](CO)NC(=O)[C@H](Cc1c[nH]cn1)NC(=O)[C@H](CCCNC(=N)N)NC(=O)[C@H](CC(C)C)NC(=O)[C@H](Cc1ccccc1)NC(=O)[C@H](CCC(=O)O)NC(=O)[C@H](C)NC(=O)[C@H](CC(C)C)NC(=O)[C@H](CCCNC(=N)N)NC(=O)[C@H](CCC(N)=O)NC(=O)[C@@H](NC(=O)[C@H](C)NC(=O)[C@@H]1CSSC[C@H](NC(=O)[C@@H](N)CCCCNC(=O)CC[C@H](NC(=O)CC[C@H](NC(=O)CCCCCCCCCCCCCCCCCCC(=O)O)C(=O)O)C(=O)O)C(=O)N[C@@H](CC(N)=O)C(=O)N[C@@H]([C@@H](C)O)C(=O)N[C@@H](C)C(=O)N[C@@H]([C@@H](C)O)C(=O)N1)[C@@H](C)O)C(=O)N1CCC[C@H]1C(=O)N[C@@H](CO)C(=O)N[C@@H](CO)C(=O)N[C@H](C(=O)N[C@@H](CC(N)=O)C(=O)N[C@H](C(=O)NCC(=O)N1CCC[C@H]1C(=O)N[C@@H](CCCNC(=N)N)C(=O)N[C@H](C(=O)N[C@@H](Cc1ccc(O)cc1)C(N)=O)[C@@H](C)O)C(C)C)[C@@H](C)O, also called compound 110) | 0.278 | 8.16 | 0.326 | 

Now from value to binder:

Row | hAmylin-R funct. EC50 [1] [nM] | hCTR funct. EC50 [2] [nM] | IC50 [3] [nM] | Ratio hCT/hAmylin funct. [1] | Binder
4 | 0.101 | 0.185 | 0.142 | 1.8 | K([γGlu-C20 diacid])CNTATCATQRLAEFLRHSSPNFGAIPSSTNVGSNTP-NH2 (disulfide 2-7; N-terminus assumed; SMILES CC[C@H](C)[C@H](NC(=O)[C@H](C)NC(=O)CNC(=O)[C@H](Cc1ccccc1)NC(=O)[C@H](CC(N)=O)NC(=O)[C@@H]1CCCN1C(=O)[C@H](CO)NC(=O)[C@H](CO)NC(=O)[C@H](Cc1c[nH]cn1)NC(=O)[C@H](CCCNC(=N)N)NC(=O)[C@H](CC(C)C)NC(=O)[C@H](Cc1ccccc1)NC(=O)[C@H](CCC(=O)O)NC(=O)[C@H](C)NC(=O)[C@H](CC(C)C)NC(=O)[C@H](CCCNC(=N)N)NC(=O)[C@H](CCC(N)=O)NC(=O)[C@@H](NC(=O)[C@H](C)NC(=O)[C@@H]1CSSC[C@H](NC(=O)[C@@H](N)CCCCNC(=O)CC[C@H](NC(=O)CCCCCCCCCCCCCCCCCCC(=O)O)C(=O)O)C(=O)N[C@@H](CC(N)=O)C(=O)N[C@@H]([C@@H](C)O)C(=O)N[C@@H](C)C(=O)N[C@@H]([C@@H](C)O)C(=O)N1)[C@@H](C)O)C(=O)N1CCC[C@H]1C(=O)N[C@@H](CO)C(=O)N[C@@H](CO)C(=O)N[C@H](C(=O)N[C@@H](CC(N)=O)C(=O)N[C@H](C(=O)NCC(=O)N[C@@H](CO)C(=O)N[C@@H](CC(N)=O)C(=O)N[C@H](C(=O)N1CCC[C@H]1C(N)=O)[C@@H](C)O)C(C)C)[C@@H](C)O, also called compound 12)
5 | 0.213 | 0.47 | 0.264 | 2.2 | K([γGlu-γGlu-C20 diacid])CNTATCATQRLAEFLRHSSPNFGAIPSSTNVGSNTP-NH2 (disulfide 2-7 (inferred), also called compound 13)
6 | 0.225 | 2.36 | 0.121 |  | K([γGlu-γGlu-C20 diacid])CNTATCATQRLAEFLRHSSPNFGAIPSSTNVGPETY-NH2 (disulfide 2-7; N-terminus assumed; SMILES CC[C@H](C)[C@H](NC(=O)[C@H](C)NC(=O)CNC(=O)[C@H](Cc1ccccc1)NC(=O)[C@H](CC(N)=O)NC(=O)[C@@H]1CCCN1C(=O)[C@H](CO)NC(=O)[C@H](CO)NC(=O)[C@H](Cc1c[nH]cn1)NC(=O)[C@H](CCCNC(=N)N)NC(=O)[C@H](CC(C)C)NC(=O)[C@H](Cc1ccccc1)NC(=O)[C@H](CCC(=O)O)NC(=O)[C@H](C)NC(=O)[C@H](CC(C)C)NC(=O)[C@H](CCCNC(=N)N)NC(=O)[C@H](CCC(N)=O)NC(=O)[C@@H](NC(=O)[C@H](C)NC(=O)[C@@H]1CSSC[C@H](NC(=O)[C@@H](N)CCCCNC(=O)CC[C@H](NC(=O)CC[C@H](NC(=O)CCCCCCCCCCCCCCCCCCC(=O)O)C(=O)O)C(=O)O)C(=O)N[C@@H](CC(N)=O)C(=O)N[C@@H]([C@@H](C)O)C(=O)N[C@@H](C)C(=O)N[C@@H]([C@@H](C)O)C(=O)N1)[C@@H](C)O)C(=O)N1CCC[C@H]1C(=O)N[C@@H](CO)C(=O)N[C@@H](CO)C(=O)N[C@H](C(=O)N[C@@H](CC(N)=O)C(=O)N[C@H](C(=O)NCC(=O)N1CCC[C@H]1C(=O)N[C@@H](CCC(=O)O)C(=O)N[C@H](C(=O)N[C@@H](Cc1ccc(O)cc1)C(N)=O)[C@@H](C)O)C(C)C)[C@@H](C)O)
7 | 0.172 | 2.83 | 0.377 |  | K([γGlu-γGlu-C20 diacid])CNTATCATQRLAEFLRHSSPNFGAIPSSTNVGPHTY-NH2 (disulfide 2-7 (inferred))
8 | 0.222 | 1.28 | 0.069 | 5.8 | K([γGlu-γGlu-C20 diacid])CNTATCATQRLAEFLRHSSPNFGAILSSTPVGPETY-NH2 (disulfide 2-7 (inferred))
